{
  "source": "IntAct's records for PubMed 19644450",
  "parents": {"B1": {"name": "Isoform 2 of C-Jun-amino-terminal kinase-interacting protein 4 (Homo sapiens), O60271-2 (parent)", "chain": "MELEDGVVYQEEPGGSGAVMSERVSGLAGSIYREFERLIGRYDEEVVKELMPLVVAVLENLDSVFAQDQEHQVELELLRDDNEQLITQYEREKALRKHAEEKFIEFEDSQEQEKKDLQTRVESLESQTRQLELKAKNYADQISRLEEREAELKKEYNALHQRHTEMIHNYMEHLERTKLHQLSGSDQLESTAHSRIRKERPISLGIFPLPAGDGLLTPDAQKGGETPGSEQWKFQELSQPRSHTSLKDELSDVSQGGSKATTPASTANSDVATIPTDTPLKEENEGFVKVTDAPNKSEISKHIEVQVAQETRNVSTGSAENEEKSEVQAIIESTPELDMDKDLSGYKGSSTPTKGIENKAFDRNTESLFEELSSAGSGLIGDVDEGADLLGMGREVENLILENTQLLETKNALNIVKNDLIAKVDELTCEKDVLQGELEAVKQAKLKLEEKNRELEEELRKARAEAEDARQKAKDDDDSDIPTAQRKRFTRVEMARVLMERNQYKERLMELQEAVRWTEMIRASRENPAMQEKKRSSIWQFVPTRFSRLFSSSSNTTKKPEPPVNLKYNAPTSHVTPSVKKRSSTLSQLPGDKSKAFDFLSEETEASLASRREQKREQYRQVKAHVQKEDGRVQAFGWSLPQKYKQVTNGQGENKMKNLPVPVYLRPLDEKDTSMKLWCAVGVNLSGGKTRDGGSVVGASVFYKDVAGLDTEGSKQRSASQSSLDKLDQELKEQQKELKNQEELSSLVWICTSTHSATKVLIIDAVQPGNILDSFTVCNSHVLCIASVPGARETDYPAGEDLSESGQVDKASLCGSMTSNSSAETDSLLGGITVVGCSAEGVTGAATSPSTNGASPVMDKPPEMEAENSEVDENVPTAEEATEATEGNAGSAEDTVDISQTGVYTEHVFTDPLGVQIPEDLSPVYQSSNDSDAYKDQISVLPNEQDLVREEAQKMSSLLPTMWLGAQNGCLYVHSSVAQWRKCLHSIKLKDSILSIVHVKGIVLVALADGTLAIFHRGVDGQWDLSNYHLLDLGRPHHSIRCMTVVHDKVWCGYRNKIYVVQPKAMKIEKSFDAHPRKESQVRQLAWVGDGVWVSIRLDSTLRLYHAHTYQHLQDVDIEPYVSKMLGTGKLGFSFVRITALMVSCNRLWVGTGNGVIISIPLTETNKTSGVPGNRPGSVIRVYGDENSDKVTPGTFIPYCSMAHAQLCFHGHRDAVKFFVAVPGQVISPQSSSSGTDLTGDKAGPSAQEPGSQTPLKSMLVISGGEGYIDFRMGDEGGESELLGEDLPLEPSVTKAERSHLIVWQVMYGNE"}},
  "data": [
    {"variants_of": "B1", "conditions": "with arf6_human ARF6, P62330", "values": [
      {"variant": "I421A", "effect of a mutation on the interaction": "decreasing interaction"}
    ]},
    {"variants_of": "B1", "conditions": "with arf6_human ARF6, P62330", "remark": "another data set of the same source", "values": [
      {"variant": "D425A", "effect of a mutation on the interaction": "decreasing interaction"}
    ]}
  ]
}
